The source of these data is paper PMC10206079, “Bioinformatics of cyanophycin metabolism genes and characterization of promiscuous isoaspartyl dipeptidases that catalyze the final step of cyanophycin degradation” (Scientific Reports, 2023).

The target in test [1] is Leucothrix mucor DSM2157 isoaspartyl dipeptidase (LmIadA), as crystallised (Leucothrix mucor DSM2157). Briefly: crystal structure; LmIadA 20 mg/ml, sitting drop, 0.56 M NaH2PO4 and 1.04 M K2HPO4, 22 °C; 1.8 Å; molecular replacement with PDB 1YBQ.
Test [2] addresses Leucothrix mucor DSM2157 isoaspartyl dipeptidase (LmIadA), purified enzyme as examined in solution (Leucothrix mucor DSM2157). Kind of test: not stated; purified enzyme in solution; shown in Supplementary Fig. S2; the method is not given.
Test [3] has as its target T1, LmIadA (Leucothrix mucor, UniProt A0AA82WPE9).
T1 construct: C-terminal TEV site and 8xHis tag (cut for structural work only); expressed in E. coli BL21(DE3); homooctamer, zinc enzyme
Briefly: coupled Asp release assay (aspartate aminotransferase / malate dehydrogenase, NADH at […] nm). Type of test: biochemical. The conditions noted are these: 1 mM dipeptide, 500 nM enzyme, 100 mM HEPES pH 8.2, 20 mM KCl.

In test [4] the target is Roseivivax halodurans DSM15395 isoaspartyl aminopeptidase (RhIaaA), heterodimer of subunits a and b (Roseivivax halodurans DSM15395). Kind of test: not stated; purified enzyme in solution; shown in Supplementary Fig. S2; the method is not given.
The target is the same in test [5]. Kind of test: crystal structure; RhIaaA 10 mg/ml, sitting drop, 0.1 M bis-tris propane pH 8.5, 0.2 M disodium malonate, 25% PEG3350, 4 °C; 2.7 Å; molecular replacement with PDB 2ZAL.

For “Leucothrix mucor DSM2157 isoaspartyl dipeptidase (LmIadA), as crystallised (enzyme)”, in test [1], the stoichiometry N stood at 8.

As for “Leucothrix mucor DSM2157 isoaspartyl dipeptidase (LmIadA), purified enzyme as examined in solution”, in test [2], the stoichiometry N came to 8.

On to `N=C(N)NCCC[C@H](NC(=O)C[C@H](N)C(=O)O)C(=O)O` [β-Asp-Arg], for which the “coupled Asp release assay (aspartate aminotransferase / malate dehydrogenase, NA)” value in test [3] is recorded as “it displayed no apparent preference towards β-Asp-Arg/Lys (Fig. 2a)”.

With `NCCCC[C@H](NC(=O)C[C@H](N)C(=O)O)C(=O)O` [β-Asp-Lys], the “coupled Asp release assay (aspartate aminotransferase / malate dehydrogenase, NA)” value in test [3] is “it displayed no apparent preference towards β-Asp-Arg/Lys (Fig. 2a)”.

Regarding “Roseivivax halodurans DSM15395 isoaspartyl aminopeptidase (RhIaaA), heterodimer of subunits a and b (complex)”, the stoichiometry N in test [4] and in test [5] was 2 each time.

The stoichiometry N is the number of molecules, sites or subunits per partner or assembly.
